The chains are these.
B1: dBBDu217 (antibody, human IgG1, V domains shown)
VH: QVQLVESGGGLVQPGRSLRLSCAASGFTFSNAWMHWVRQAPGKGLEWVAQIKDRQQGYATYYAPSVKGRFTISRDDSKNSIYLQMNSLKTEDTAVYYCRFVHYHLAGYGYYGVDAWGQGTTVTVSS
VL: DIVMTQSPLSLPVTPGEPASISCRSSQSLVHSNRNTYLHWYQQKPGQAPRLLIYKVSNRFSGVPDRFSGSGSGTDFTLKISRVEAEDVGVYYCGQGTQVPYTFGQGTKLEIK
notes: human IgG1; GLS3000 light chain
B2: dBBDu139 (antibody, human IgG1, V domains shown)
VH: QVQLVESGGGLVQPGRSLRLSCAASGFTFSNAWMHWVRQAPGKGLEWVAQIKDRGNAYNAYYAESVKGRFTISRDDSKNSIYLQMNSLKTEDTAVYYCRFVHYRHPLLHIQYGVDAWGQGTTVTVSS
VL: DIVMTQSPLSLPVTPGEPASISCRSSQSLVHSNRNTYLHWYQQKPGQAPRLLIYKVSNRFSGVPDRFSGSGSGTDFTLKISRVEAEDVGVYYCGQGTQVPYTFGQGTKLEIK
notes: as for B1
B3: dBBDu183 (antibody, human IgG1, V domains shown)
VH: QVQLVESGGGLVQPGRSLRLSCAASGFTFSNAWMHWVRQAPGKGLEWVAQIKDKGNAYAAYYAPSVKGRFTISRDDSKNSIYLQMNSLKTEDTAVYYCHYVHYASASTVLPAFGVDAWGQGTTVTVSS
VL: DIVMTQSPLSLPVTPGEPASISCRSSQSLVHSNRNTYLHWYQQKPGQAPRLLIYKVSNRFSGVPDRFSGSGSGTDFTLKISRVEAEDVGVYYCGQGTQVPYTFGQGTKLEIK
notes: as for B1
B4: dBBDu174 (antibody, human IgG1, V domains shown)
VH: QVQLVESGGGLVQPGRSLRLSCAASGFTFSSAWMHWVRQAPGKGLEWVAQIKDRASAYNAYYAESVKGRFTISRDDSKNSIYLQMNSLKTEDTAVYYCRYVHYPSYVSFLPYYGVDAWGQGTTVTVSS
VL: DIVMTQSPLSLPVTPGEPASISCRSSQSLVHSNRNTYLHWYQQKPGQAPRLLIYKVSNRFSGVPDRFSGSGSGTDFTLKISRVEAEDVGVYYCGQGTQVPYTFGQGTKLEIK
notes: as for B1
B5: dBBDu197 (antibody, human IgG1, V domains shown)
VH: QVQLVESGGGLVQPGRSLRLSCAASGFTFSNAWMHWVRQAPGKGLEWVAQIKDRSNAYAAYYAPSVKGRFTISRDDSKNSIYLQMNSLKTEDTAVYYCHYVHYASASTVLPAFGVDAWGQGTTVTVSS
VL: DIVMTQSPLSLPVTPGEPASISCRSSQSLVHSNRNTYLHWYQQKPGQAPRLLIYKVSNRFSGVPDRFSGSGSGTDFTLKISRVEAEDVGVYYCGQGTQVPYTFGQGTKLEIK
notes: as for B1
B6: dBBDu181 (antibody, human IgG1, V domains shown)
VH: QVQLVESGGGLVQPGRSLRLSCAASGFTFSNAWMHWVRQAPGKGLEWIAQIKDRGNNYNNYYAPSVKGRFTISRDDSKNSIYLQMNSLKTEDTAVYYCHYVHYATASTLLGAYGVDAWGQGTTVTVSS
VL: DIVMTQSPLSLPVTPGEPASISCRSSQSLVHSNRNTYLHWYQQKPGQAPRLLIYKVSNRFSGVPDRFSGSGSGTDFTLKISRVEAEDVGVYYCGQGTQVPYTFGQGTKLEIK
notes: as for B1
B7: dBBDu199 (antibody, human IgG1, V domains shown)
VH: QVQLVESGGGLVQPGRSLRLSCAASGFTFSNAWMHWVRQAPGKGLEWVAQIKDKQSGYNTYYAPSVKGRFTISRDDSKNSIYLQMNSLKTEDTAVYYCHYVHYASASTVLPAFGVDAWGQGTTVTVSS
VL: DIVMTQSPLSLPVTPGEPASISCRSSQSLVHSNRNTYLHWYQQKPGQAPRLLIYKVSNRFSGVPDRFSGSGSGTDFTLKISRVEAEDVGVYYCGQGTQVPYTFGQGTKLEIK
notes: as for B1
B8: dBBDu196 (antibody, human IgG1, V domains shown)
VH: QVQLVESGGGLVQPGRSLRLSCAASGFTFSNAWMHWVRQAPGKGLEWVAQIKDRGNAYNAYYAESVKGRFTISRDDSKNSIYLQMNSLKTEDTAVYYCHYVHYASASTVLPAFGVDAWGQGTTVTVSS
VL: DIVMTQSPLSLPVTPGEPASISCRSSQSLVHSNRNTYLHWYQQKPGQAPRLLIYKVSNRFSGVPDRFSGSGSGTDFTLKISRVEAEDVGVYYCGQGTQVPYTFGQGTKLEIK
notes: as for B1
B9: dBBDu189 (antibody, human IgG1, V domains shown)
VH: QVQLVESGGGLVQPGRSLRLSCAASGFTFSNAWMHWVRQAPGKGLEWIAQIKDRSNQYATYYAPSVKGRFTISRDDSKNSIYLQMNSLKTEDTAVYYCHYVHYAQASSLLPSFGVDAWGQGTTVTVSS
VL: DIVMTQSPLSLPVTPGEPASISCRSSQSLVHSNRNTYLHWYQQKPGQAPRLLIYKVSNRFSGVPDRFSGSGSGTDFTLKISRVEAEDVGVYYCGQGTQVPYTFGQGTKLEIK
notes: as for B1
B10: dBBDu205 (antibody, human IgG1, V domains shown)
VH: QVQLVESGGGLVQPGRSLRLSCAASGFTFSNAWMHWVRQAPGKGLEWVAQIKDRSQLYAAYYAPSVKGRFTISRDDSKNSIYLQMNSLKTEDTAVYYCHYVHYASASTVLPAFGVDAWGQGTTVTVSS
VL: DIVMTQSPLSLPVTPGEPASISCRSSQSLVHSNRNTYLHWYQQKPGQAPRLLIYKVSNRFSGVPDRFSGSGSGTDFTLKISRVEAEDVGVYYCGQGTQVPYTFGQGTKLEIK
notes: as for B1
B11: dBBDu173 (antibody, human IgG1, V domains shown)
VH: QVQLVESGGGLVQPGRSLRLSCAASGFTFSNAWMHWVRQAPGKGLEWVAQIKDKGNLYAAYYAPSVKGRFTISRDDSKNSIYLQMNSLKTEDTAVYYCHYVHYASAGGGLSAYGVDAWGQGTTVTVSS
VL: DIVMTQSPLSLPVTPGEPASISCRSSQSLVHSNRNTYLHWYQQKPGQAPRLLIYKVSNRFSGVPDRFSGSGSGTDFTLKISRVEAEDVGVYYCGQGTQVPYTFGQGTKLEIK
notes: as for B1
B12: dBBDu167 (antibody, human IgG1, V domains shown)
VH: QVQLVESGGGLVQPGRSLRLSCAASGFTFSNAWMHWVRQAPGKGLEWVAQIKDKGNLYAAYYAPSVKGRFTISRDDSKNSIYLQMNSLKTEDTAVYYCHYVHYASAGGGLPGFGVDAWGQGTTVTVSS
VL: DIVMTQSPLSLPVTPGEPASISCRSSQSLVHSNRNTYLHWYQQKPGQAPRLLIYKVSNRFSGVPDRFSGSGSGTDFTLKISRVEAEDVGVYYCGQGTQVPYTFGQGTKLEIK
notes: as for B1
B13: dBBDu204 (antibody, human IgG1, V domains shown)
VH: QVQLVESGGGLVQPGRSLRLSCAASGFTFSNAWMHWVRQAPGKGLEWVAQIKDRSNNYATYYAESVKGRFTISRDDSKNSIYLQMNSLKTEDTAVYYCHYVHYASASTVLPAFGVDAWGQGTTVTVSS
VL: DIVMTQSPLSLPVTPGEPASISCRSSQSLVHSNRNTYLHWYQQKPGQAPRLLIYKVSNRFSGVPDRFSGSGSGTDFTLKISRVEAEDVGVYYCGQGTQVPYTFGQGTKLEIK
notes: as for B1
B14: dBBDu125 (antibody, human IgG1, V domains shown)
VH: QVQLVESGGGLVQPGRSLRLSCAASGFTFSIAWMHWVRQAPGKGLEWVAQIKDKVNGYTAYYAESVKGRFTISRDDSKNSIYLQMNSLKTEDTAVYYCRYVHYAAYYDVLGYGGVDAWGQGTTVTVSS
VL: DIVMTQSPLSLPVTPGEPASISCRSSQSLVHSNRNTYLHWYQQKPGQAPRLLIYKVSNRFSGVPDRFSGSGSGTDFTLKISRVEAEDVGVYYCGQGTQVPYTFGQGTKLEIK
notes: human IgG1; GLS3000 light chain; also called DXDU01_3 #019; DXDU01_3_#019
B15: dBBDu202 (antibody, human IgG1, V domains shown)
VH: QVQLVESGGGLVQPGRSLRLSCAASGFTFSNAWMHWVRQAPGKGLEWVAQIKDKGNAYAAYYAPSVKGRFTISRDDSKNSIYLQMNSLKTEDTAVYYCHYVHYSAASTVLPAFGVDAWGQGTTVTVSS
VL: DIVMTQSPLSLPVTPGEPASISCRSSQSLVHSNRNTYLHWYQQKPGQAPRLLIYKVSNRFSGVPDRFSGSGSGTDFTLKISRVEAEDVGVYYCGQGTQVPYTFGQGTKLEIK
notes: as for B1
B16: dBBDu186 (antibody, human IgG1, V domains shown)
VH: QVQLVESGGGLVQPGRSLRLSCAASGFTFSNAWMHWVRQAPGKGLEWVAQIKDRSNQYATYYAPSVKGRFTISRDDSKNSIYLQMNSLKTEDTAVYYCHYVHYAQASTVLPAFGVDAWGQGTTVTVSS
VL: DIVMTQSPLSLPVTPGEPASISCRSSQSLVHSNRNTYLHWYQQKPGQAPRLLIYKVSNRFSGVPDRFSGSGSGTDFTLKISRVEAEDVGVYYCGQGTQVPYTFGQGTKLEIK
notes: as for B1
B17: dBBDu222 (antibody, human IgG1, V domains shown)
VH: QVQLVESGGGLVQPGRSLRLSCAASGFTISSAWMHWVRQAPGKGLEWVAQIKDRANGYAAYYAPSVKGRFTISRDDSKNSIYLQMNSLKTEDTAVYYCRYVHYATAYDGFYGFGVDAWGQGTTVTVSS
VL: DIVMTQSPLSLPVTPGEPASISCRSSQSLVHSNRNTYLHWYQQKPGQAPRLLIYKVSNRFSGVPDRFSGSGSGTDFTLKISRVEAEDVGVYYCGQGTQVPYTFGQGTKLEIK
notes: as for B1
B18: dBBDu193 (antibody, human IgG1, V domains shown)
VH: QVQLVESGGGLVQPGRSLRLSCAASGFTFSNAWMHWVRQAPGKGLEWVAQIKDRSNQYATYYAPSVKGRFTISRDDSKNSIYLQMNSLKTEDTAVYYCHYVHYSAASTLLPSFGVDAWGQGTTVTVSS
VL: DIVMTQSPLSLPVTPGEPASISCRSSQSLVHSNRNTYLHWYQQKPGQAPRLLIYKVSNRFSGVPDRFSGSGSGTDFTLKISRVEAEDVGVYYCGQGTQVPYTFGQGTKLEIK
notes: as for B1
B19: Du115/DUL008 (antibody, V domains shown)
VH: QVQLVESGGGLVQPGRSLRLSCAASGFTFSNAWMHWVRQAPGKGLEWVAQIKDKANSYNTYYAPSVKGRFTISRDDSKNSIYLQMNSLKTEDTAVYYCRYVHYGSSYGFLFAGYGVDAWGQGTTVTVSS
VL: DIVMTQSPLSLPVTPGEPASISCQSSEELLHANRKTYLHWYQQKPGQAPRLLIYKVQNRFSGVPDRFSGSGSGTDFTLKISRVEAEDVGVYYCAQGTATPFTFGQGTKLEIK

Data on 19 molecules can be found in patent US20210388087A1 (Chugai, published 2021).

The first test deals with T1, biotin-labeled human CD137 fused to human IgG1 Fc fragment (human, UniProt Q07011 24-186, biotin-labeled).
T1 construct: also called human CD137-Fc; biotin-human CD137-Fc; not shown: human IgG1 Fc fragment
The test can be described thus: bead ELISA, 1250 ng IgG, S/N over biotin-human Fc.
On to B1, for which the binding result is given as “binds”.

For the molecule B2, the binding result is “binds”. Still for that read-out and setting: the entry for B3 is “binds”. For the molecule B4, the binding result is on record as “binds”. The same measure, in the same setting: with B5 the entry was “binds”. The same measure, in the same setting: with B6 the entry was “binds”; with B7, “binds”. On the same count and under the same terms, the entry for B8 is “binds”; for B9 it is “binds”. On to B10, for which the binding result is “binds”. On the same count and under the same terms, the entry for B11 is “binds”; for B12 it is “binds”. The same measure, in the same setting: the entry for B13 is “binds”; for B14 it is “binds”.

With B15, the binding result was “binds”. Turning to B16, the binding result was “binds”. Regarding B17, the binding result is listed as “binds”. The same measure, in the same setting: the entry for B18 is “binds”.

The target in the next test is T2, human CD137-Fc (human, biotin-labeled).
T2 construct: if 90 already holds the Fc, drop the second piece; also called biotin-labeled human CD137 fused to human IgG1 Fc fragment; biotin-human CD137-Fc; not shown: human IgG1 Fc fragment
The test can be described thus: bead ELISA on biotin-human CD137-Fc, 0 pmol free CD3e peptide.
In the case of B19, the ELISA signal is 86200.

The target in a further test is T2, human CD137-Fc. In words: bead ELISA on biotin-human CD137-Fc, 125 vs 0 pmol free CD3e peptide.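 Also: target captured on streptavidin-coated magnetic beads, signal read as fluorescence 2 min after adding APS-5 substrate.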
Consider B19, for which the Signal decrease was 97%.

A further test has as its target T2, human CD137-Fc. In words: bead ELISA on biotin-human CD137-Fc with 125 pmol/well free CD3e peptide as competitor.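 Also: Streptavidin-coated magnetic beads in blocking buffer as the capture surface, well signal read as fluorescence 2 min after adding APS-5 substrate.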
With B19, the ELISA signal is 2620.
